Reference: article PMC6077723 (Proceedings of the National Academy of Sciences of the …, 2018)

Assays:
[1] = biological target: MBP-HIGD1A chimera (hypoxia-inducible domain family member 1A with an N-terminal maltose binding protein tag) (human) (UniProt Q9Y241); test: ITC
[2] = biological target: wild-type cytochrome c (human, UniProt P99999 1-105); test: ITC
Chain of wild-type cytochrome c (P99999 whole entry): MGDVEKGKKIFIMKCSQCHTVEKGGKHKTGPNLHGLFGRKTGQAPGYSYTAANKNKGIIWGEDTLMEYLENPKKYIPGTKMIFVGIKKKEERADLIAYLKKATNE

| stoichiometry N [1] | binding result [2] | Molecule |
| --- | --- | --- |
| 1 |  | Y97pCMF cytochrome c (phosphomimetic mutant) (from UniProt P99999 1-105) (natural protein) |
|  | binds | MSTDTGVSLPSYEEDQGSKLIRKAKE (domain or fragment, human, UniProt Q9Y241 1-26, looked up) [N-terminal domain of HIGD1A (HIGD1A 1-26)] |
